Experimental data as given in the DeepSol protein solubility set.

assay: soluble on expression in E. coli; label from the status in PepcDB or PDB records

Sequence | soluble on expression in E. coli
MLEGVVRRREGPDYTVRIKPVARSRILTLPDAPERSSPVIVGIDPGITTGLAVLDINGRLLHAESSKSLDRSRVTEIVYGLGRPVIVAVDVADPPETAKKLAAQWGAMLYTPPADLTTSEKWGLARRVLGSSVEDTHVRDLEHHHHHH | not soluble
MYEIIRMGVRNMLITFHSKVAAEVLMRTDDAAPLLRAAGKSFRDAIPERGVFTADQLQSAITGLERAIAAADRSPPDDDEPHPDKEPVHPIELAVGLHQRAFPLLDMMRKTAAAGADLTWEVSRGW | not soluble
MIGMDHLAIGTYEGFLIGYDIDTQPNDPKTTTGCTLRYAYAAHERSIRCIAGSFPILASASVDESIKVYQLDQLQELATLYDLQVPVNSVDIQLQGGLLSGGEDGKLVYYPYGGWSKPKYLKGHKGNVHSVALHPTGQICLSVARDKCLKLWKTNGDCVCSLELPDEAFIVKWTEDGQGWVIATQTSFSVHSLQTGLIQQWEYSTRLVCLCALTNDIFVVGGMDGHLRVGENKPIQVHKVDGGSLVKGIGVGRDGCIYSLSSKGVLEMVAPSRQLEIQNGVVKRYIE | not soluble
MGSDKIHHHHHHMTDNFFHGVRVRESTDLVTAINDIDSTVIGIVAIADDADPEMFPLNTPVLLTRVNNALGKAGKTGSLYKSLKAISDQCSTKVIVVRVAAATDGDDNQTQSQLVIGGTAADGSYTGMYAFLTAEQKTGYRPRILAVPDHDTIEVATQLGVIAQKLRAFFYAYCHNCETIAEAKAYRETLNYREVMPIWPNFIAYNTLTGENEEFPAVAYACGLRALIDNTQGWHKSLSNVAVNNVLGISKDVFWALQAEDSDANELNAHEITTLIKRDGFRFWGNRTTDPDKEYIFEVYTRTAQILADSIAEAQFTTVDKPMTPGNVKDVVSGINAKLQALVTAGKLIGAACWFDIVDNPTTGLRQGKCIVRYNYTPVPPLEDLSLYQTFTDQYFETAFSSLGGA | not soluble
MEVITFESEAYKALVGKIEKIAGYVAEAQLPSEEKKETWLDSNQLAEALGISTRTLQRLRDENLISYSMLRGRCMYKLSEVERCLEERTIRCKPQTLEDFRKNYLTRTGNDKKG | not soluble
SNAMARKKNTSDQSRSQAANTPIAGTYEGEYSVIELEADSYTTDGWLISINGVPSSHIVLGQPQALEFEYMRWIATGARAFIDAHQDASKLRITHLGGGACTMARYFADVYPQSRNTVVELDAELARLSREWFDIPRAPRVKIRVDDARMVAESFTPASRDVIIRDVFAGAITPQNFTTVEFFEHCHRGLAPGGLYVANCGDHSDLRGAKSELAGMMEVFEHVAVIADPPMLKGRRYGNIILMGSDTEFFSSNSTEASAITRELLGGGVPAQYKDESWVRKFASGAQARHDGVSTLQMPSDTPQHPAETPEHSNTQP | soluble
MAHHHHHHMEIADRPLSEIIKEQKIDKELRRRHRGNQSGGNSDKKSVNRQGSSSQRQRNNNNNNTSGSRSRGSGNRSGGNKPESGRRRFRTDGGRRRGGNAVSAGSGSFGASRRRLADRADRRRRGALGGDNGNDGFGRGRDRDNNDRRGVKSAPRRRRISGAERNERNRNRDRRSALSRSRFDRDY | soluble
MNLDELLLLIEKNRSQLSKIDDDFYEKLRERIAELEEMKSSAGESDFFRYEDEIRTLKRLQRKIFELRTGKIISAAWAEVCGQQFSSDVENMCSDERVFFKKLIDIIKEFKRSILEGGKRKISDRVLVRIKKDVEIQGADGKTYKLRREDVVTLPQLNADALIKGGIAERIEVKEDEVSQEGLEHHHHHH | soluble
STDISTVASPLFEGTEGCFLLYDASTNAEIAQFNKAKCATQMAPDSTFKIALSLMAFDAEIIDQKTIFKWDKTPKGMEIWNSNHTPKTWMQFSVVWVSQEITQKIGLNKIKNYLKDFDYGNQDFSGDKERNNGLTEAWLESSLKISPEEQIQFLRKIINHNLPVKNSAIENTIENMYLQDLDNSTKLYGKTGAGFTANRTLQNGWFEGFIISKSGHKYVFVSALTGNLGSNLTSSIKAKKNAITILNTLNL | soluble
MKKVVAVVKLQLPAGKATPAPPVGPALGQHGANIMEFVKAFNAATANMGDAIVPVEITIYADRSFTFVTKTPPASYLIRKAAGLEKGAHKPGREKVGRITWEQVLEIAKQKMPDLNTTDLEAAARMIAGSARSMGVEVVGAPEVKDA | soluble
MQVSDFHFELPDELIARYPKAERTASRLLQLDGNSGQLVDGTFKDVLELVEPGDLLVFNNTRVIPARMFGRKASGGKLEVLVERMLDEHTILAHVRSSKPPKPGTELYLGENDEFHAVMQARHDALFEIRFTAETVVLDILNQIGHMPLPPYIDRPDEEADKERYQTVYNQKPGAVAAPTAGLHFDQALLEQIQAKGVELAYVTLHVGAGTFQPVRVENIHDHHMHAEYVEVPQEVVDAITATKARGGRVVAVGTTSVRSLESAAQDALQKGTELKPFFGDTEIFIFPGYQYQLVDCLITNFHLPESTLIMLVSAFAGYEHTMAAYEHAVKEQYRFFSYGDAMFIRKQMTKA | not soluble
MGSDKIHHHHHHMKYYFAPLEGITGYIYRNAYEKFFGGIDKYFTPFIVPTSSKSLTSRELKDVLPENNKVTFLVPQILTNDANKFIFTTEKLMNLGYSEVNLNLGCPSGTVVSKGRGAGFLKKRQELDEFLEKIFSKSPAKISIKTRIGKDSPDEFYELIKIFNKYPLEELIIHPRIQTDFYNNKPNMKVFKDALELSKSTVCYNGDIFQSNDYIKLIEEFSNLGVVMLGRGIISNPNIIKKINSNNVLEKEVLKKFHDAIYEEYQDILSGEKNVLFKMKEIWFYMIHLFKDSDKFAKKIRKANRLRDYEAIISALFGEFDLI | not soluble
MGSDKIHHHHHHMNKTCERTSGDCTGESKARAASDRVTPCFTPGTLIATPRGERLVENLQVGDRVITRDNGIQEIRWFGHNAMGPQDLSHASHLQPILIRQGALGNGLPERDMMVSPNHRVLVANDKTALYFEDREVLVAAKHLTGLTGIDAIVTTAVTYIHFMFNQHEVVLSDGAWTESFQPVDQSLRGLDNAQRNEIFELFPELRTKEGQKAYPSARRELKEREARMLLH | not soluble
MTYWICITNRENWEVIKRHNVWGVPKKHKNTLSRVKPGDKLVIYVRQEKDKEGNLLEPKIVGIYEVTSEPYVDFSRIFKPHRGGKETYPYRVKIKPIKIGEINFKPLINDLKFIKNKKRWSMHFFGKAMRELPEEDYKLIEKLLL | soluble
ARVDQTPRIATKETGESLTINCVLRDTACALDSTNWYRTKLGSTKEQTISIGGRYSETVDEGSNSASLTIRDLRVEDSGTYKCKAYRRCAFNTGVGYKEGAGTVLTVK | soluble
MAAPILFWHRRDLRLSDNIGLAAARAQSAQLIGLFCLDPQILQSADMAPARVAYLQGCLQELQQRYQQAGSRLLLLQGDPQHLIPQLAQQLQAEAVYWNQDIEPYGRDRDGQVAAALKTAGIRAVQLWDQLLHSPDQILSGSGNPYSVYGPFWKNWQAQPKPTPVATPTELVDLSPEQLTAIAPLLLSELPTLKQLGFDWDGGFPVEPGETAAIARLQEFCDRAIADYDPQRNFPAEAGTSGLSPALKFGAIGIRQAWQAASAAHALSRSDEARNSIRVWQQELAWREFYQHALYHFPSLADGPYRSLWQQFPWENREALFTAWTQAQTGYPIVDAAMRQLTETGWMHNRCRMIVASFLTKDLIIDWRRGEQFFMQHLVDGDLAANNGGWQWSASSGMDPKPLRIFNPASQAKKFDATATYIKRWLPELRHVHPKDLISGEITPIERRGYPAPIVNHNLRQKQFKALYNQLKAAIAEPEAEPDS | soluble
MAHNNYLDLEMLFNECNAQHYENLGMFFKWLQQFAAHHEDPKITIKDFKGDKTSGEMILHVNTFTLFKYRQEFDMKVSALNDNGLGWKILFVDRSLGCN | not soluble
MSLANLFESHSPAGPLANRMRPQSLDEIVGQRHLIGESTLLRRAILADRLGTVIFYGPPGTGKTTLARVISSYTKSAFEQLNAVTAKLDQLREVLKAAESRLQFDQQKTILFLDEIHRFNKMQQDALLPALEAGTITLIGATTENPSFEVNAALLSRATVFRFETPTTEDLRVVLHRTLHDTERGLGKYPITVTEEAVDHYVKLSDGDYRALLNALELAVLTTPEIDGEITIDLSVAEESIQQKALKYDKDGDRHYDVISAFIKSIRGSDPDAALYWLAVMIEAGESPRFIVRRLYVHAAEDIGMSDPQALLIVDACARACEYIGFPEARIPLAETVLYLATAPKSNTVITAIDQALELVRRSDGGPVPPHLRDAHHAGAAALGNGVEYQYPHQFPHAYVKQNYWPENLARTKPVFYKPSPRGFEKQLQARLDFWKKQEGHHHHHH | soluble
GSHEATVEYLADLVKEKKHLTLFPHMFSNVERLLDDEIGRVRVALFQTEFPRVELPEPAG | soluble
MIYINLYNSNQMTKGILIAGTHSGVGKTTVSMGIMAALKHRQLKVQPYKVGPDYIDPSHHTAICGRPSRNLDTYLMGTEGVRQTVARTSADADIAVVEGVMGLFDGIDSTEVASSAHVAKTLDIPVILVINVHGMSRSAAALLKGYSEFDPEVRVAGVILNQVGSPRHAELVKNSLPGNIPIIGTIPRRKDIEVPSRHLGLYMAHEK | not soluble
MGSDKIHHHHHHMKLGILEKYRRFLPVTDKTPMLSLNEGNTPLIPLVNMSRELGINIYVKYEGSNPTGSFKDRGMVVAVAKALEEGSKAIMCASTGNTSASAAAYAARAGIKAIVLIPEGKIALGKLAQAMIYGAVVLQVRGNFDKCLELVKEITSKYPITLVNSINPYRLEGQKTAAFEIVDELGDAPDYHFIPVGNAGNISAYWMGYKEYYQHGFSTKLPKMMGFQAEGAAPIVRGHPIENPETVATAIRIGNPANWEKAVRARDESGGDIDMVSDEEILRAQRLLAQKEGIFCEPASAASIAGLLKKHRQGIFRGGEIVVCTLTGNGLKDPNIVISQLEPPRIIEGRVEEILEVLDI | not soluble
MGSDKIHHHHHHMIRSTLSSWREYLTPITHKSTFLTTGQITPEEFVQAGDYLCHMFPTWKWNEESSDISYRDFLPKNKQFLIIRKVPCDKRAEQCVEVEGPDVIMKGFAEDGDEDDVLEYIGSETEHVQSTPAGGTKDSSIDDIDELIQDMEIKEEDENDDTEEFNAKGGLAKDMAQERYYDLYIAYSTSYRVPKMYIVGFNSNGSPLSPEQMFEDISADYRTKTATIEKLPFYKNSVLSVSIHPCKHANVMKILLDKVRVVRQRRRKELQEEQELDGVGDWEDLQDDIDDSLRVDQYLIVFLKFITSVTPSIQHDYTMEGW | not soluble
PFTYSIEATRNLATTERCIQDIRNAPVRNRSTQFQLAQQNMLAYTFGEVIPGFASAGINGMDYRDVIGRPVENAVTEGTHFFRDDFRVDSNAKAKVAGDIFEIVSSAVMWNCAARWNSLMVGEGWRSQPRYSRPTLSPSPRRQVAVLNLPRSFDWVSLLVPESQEVIEEFRAGLRKDGLGLPTSTPDLAVVVLPEEFQNDEMWREEIAGLTRPNQILLSGAYQRLQGRVQPGEISLAVAFKRSLRSDRLYQPLYEANVMQLLLEGKLGAPKVEFEVHTLAPEGTNAFVTYEAASLYGLAEGRSAVHRAIRELYVPPTAADLARRFFAFLNERMELVNG | soluble
MENGEAKQSVPLLTPYKMGRFNLSHRVVLAPLTRQRSYGNVPQPHAAIYYSQRTTPGGFLITEATGVSDTAQGYQDTPGIWTKEHVEAWKPIVDAVHAKGGIFFCQIWHVGRVSNSGFQPNGKAPISCSDKPLMPQIRSNGIDEALFTPPRRLGIEEIPGIVNDFRLAARNAMEAGFDGVEIHGANGYLIDQFMKDTVNDRTDEYGGSLQNRCKFPLEIVDAVAKEIGPDRVGIRLSPFADYMESGDTNPGALGLYMAESLNKYGILYCHVIEARMKTMGEVHACPHTLMPMRKAFKGTFISAGGFTREDGNEAVSKGRTDLVAYGRWFLANPDLPKRFQVDAPLNKYDRPTFYTSDPVVGYTDYPFLESTA | soluble
